Data published in article PMC7526519.

How the values were obtained:
Test in all cases: SPR
[1] = molecular target: Malayan pangolin ACE2 ectodomain fused with mouse Fc (Malayan pangolin)
[2] = molecular target: little brown bat ACE2 ectodomain fused with mouse Fc (little brown bat)
[3] = molecular target: alpaca ACE2 ectodomain fused with mouse Fc (alpaca)

SARS-CoV receptor binding domain (RBD), His-tagged (from UniProt P59594 306-527) (domain or fragment)
fold lower affinity than SARS-CoV-2 RBD to the same ACE2 [1]: 4 fold | fold lower affinity than SARS-CoV-2 RBD to the same ACE2 [2]: 40 fold

SARS-CoV-2 receptor binding domain (RBD), His-tagged (from UniProt P0DTC2 319-541) (domain or fragment)
Kd [3]: 16.5 µM
